# Data: the nanobody polyreactivity screen of Harvey et al. (2022)
# Assay: yeast display, Sf9 membrane polyspecificity reagent, FACS + sequencing; frameworks hold sequencing errors
# Outline: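 Polyreactivity labels are assigned by the sorting gate from which each nanobody was recovered. The gates were low and high (top ~1%), set on anti-HA fluorescence for expression and streptavidin fluorescence for reagent binding. Before sorting, galactose-induced (36–48 hours) yeast display cells were stained for 1 hour at 4 °C with 10% biotinylated, detergent-solubilized Sf9 membrane reagent.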
sequence,measurement,value
QVQLVESGGGLVQAGGSLRLSCAASGRTFCYYAMVWYRRAPGKERELVAAISWSGSRTYYADSVKGRFTISRDNANNSVYLQMTSLKPEDTAVYYCAAGARGLFWEYDYWGQGTQVTVSS,polyreactivity (PSR sort gate),high polyreactivity
QVQLVESGGGLLQAGGSLRLSCAASGRTFHLYAMGWYRQAPGKERELVAAIRGRSGSTYYADSVKGRFTISRDNAKNTVYLQMNSLKPEDTAVYYCAVGRYPYGSARYRFDYWGQGTQVTVSS,polyreactivity (PSR sort gate),high polyreactivity
QVQLVESGGGLVQAGGSLRLICAASAITFYDYTMGWYRQAPGKERELVAAISRSGGSTYYADSVKGRFTISRDNAKNTVYLQMNSLKPEETAFYYCADYTHYQPEYDYWGQGTQVTVSS,polyreactivity (PSR sort gate),high polyreactivity
QVQLVESGGGLVQAGGSLRLSCAASGYTFRYYAMGWYRQAPGKERELVAVISSGGSTKYADSVKGRFTISRDNAKNTVYLQMNSLKPEDTAVYYCAARYRSLYNYWGQGTQVTVSS,polyreactivity (PSR sort gate),high polyreactivity
QVQLVESGGGLDQAGGSLRLSCAASGSTFRRYAMGWYRQAPGKERELVAAITGSGGRTYYADSVKGRFTISRDNAKNTVYLQMNSLKPEDTAVYYCNAVSYIDYSRARIRYEYWGQGTQVTVSS,polyreactivity (PSR sort gate),high polyreactivity
QVQLVESGGGLVQAGGSLRLSCAASGSTFYYNAMGCYRQAPGKERELVAAISSDGSTNYADSVKGRFTISRDNAKNTVYLQMNSLKPEDTAVYYCAAENIVYVRSNWYWGYDYWGQGTQVTVSS,polyreactivity (PSR sort gate),low polyreactivity
QVQLVETGGGLVQAGCSLRLSCAASGSIFSYYAMGWSRQAPGKERELVAGITGSGGSTYADSVKGRFTISRDNAKNTVYLQMNSLKPEDTAVYYCAADLQRYWWWYEYWGQGTQVTVSS,polyreactivity (PSR sort gate),high polyreactivity
QVQLVESGGGLVQSGGSLRLSCAASGITLYWYAMGWYRQAPGKERELVAAITFNGGSTYADSVKGRFTISRDNAKNTVYLQMNSLKPEDTAVYYFASGDGPSLFDYWGQGTQVTVSS,polyreactivity (PSR sort gate),low polyreactivity
QVQLVESGGGLVQAGGSLRLSCAASGSISGYYAMGWYRQAPGKERELVASIRYTGARTYYADSVMGRFTISRDTAKNNVYLQMNSLKPEDTAVYYCAADVKRDRVWGGDYWGQGTQVTVSS,polyreactivity (PSR sort gate),low polyreactivity
QVQLVESGGGLVQAGGSLRLSSAASGRIFYGYAMGWYRQAPGKERELVAAITNTGVDTYYADSVKGRFTISRDNEKNTVYLQMNSLKPEDTAVYYCAADGRRPKSGYWGQGTQVTVSS,polyreactivity (PSR sort gate),low polyreactivity
QVQLVESGGGLVQAGGSLRLSCAASGRTFTEYAMGWYRQAHGKERELVARISIGDSTYYADSVKGRFTISRDNAKNTVYLQMNSLKPEDTAVYYCNAEYSRSYRYDEGYWGQGTKVTVSS,polyreactivity (PSR sort gate),low polyreactivity
QVQLVESGGGLVQAGGSLRLSCAASGRTAMGWYRHAPGKEREVVAAITGSGVSTYADSVKGRFTISRDNAKNTVYLQMNSLKPEDTAVYYCAADLPFVGGDYWGQGTQVYVSS,polyreactivity (PSR sort gate),low polyreactivity
QVQLVESGGGLVQAGGSLRLSCAASGRIFSYNAMGWYRQAPGKEREFVAAIDWRAGSTYYADSVKGRFTISRDNAKKTVYLQMNSLKPEDTAVYYCAVEFGAYPFLYYYWGQGTQVTVSS,polyreactivity (PSR sort gate),high polyreactivity
QVQLVESGGGLVQAGGSLRLSCAASGITFGRNTMGWYRQAPGKERELVAAIDSGGNTYADSVKGRFTISRDNAKNTVYLQMNSLKPEDTAVYYCATVADEPRAYSGYEESDYWGQGTQVTVSS,polyreactivity (PSR sort gate),low polyreactivity
QVQLVESGAGLVQAGGSLRLSCAASGITFYTYAMGWYRQAPGKERELVAAITSRTGSTYYADSVKGRFTISRDNAKNTVYLQMNSLKPEDTAVYYCAADRTRGRDGSDYWGQGTQVTVSS,polyreactivity (PSR sort gate),low polyreactivity
QVQLVESGGGLVQAGCSLRLICAASGLTFSRYTMGWYRQAPGKERELVAAISLSGGRTYYADSVKGRFTISRDNAKNTVYLQMNSLKPEDTAVYYCNARGTYHGQYYWGEGTQVTVSS,polyreactivity (PSR sort gate),high polyreactivity
QVQHVESGGGLVQAGGSLRLSCAASGSTSYPYAMGWYRQAPGKERELVATITSGGRTNYADSVKGRFTISRDNAKNTVYLQMNSLKPEDTAVYYCNARFYRWRSYGYDYWGQGTQVTVSS,polyreactivity (PSR sort gate),high polyreactivity
QVQLVESGGGLVQAGGSLRLSCAASGRTFVKNAMGWYRQAPGKERELVAISWSTGGTYYADSVKGRFTISRDNAKNTVYLQMNSLKPEDTAVYYCNADWGSVNGYSGYYYWGQGTQVTVSS,polyreactivity (PSR sort gate),low polyreactivity
QVQIVESGGGLVQAGGSLPLSCAASGSIFDYYVMGWYRQAPGKERELVAAINWSGDGTNYADSVKGRFTISRDNAKNTVYLQMNSLKPEDTAVYYCNADWTSDGFGTRLDYWGQGTQVTVSS,polyreactivity (PSR sort gate),low polyreactivity
QVQLVESGGGLVQAGGSLSLTCDASGFILYYYAMGRYRQAPGKERELVAAIDWDGDRTYYADSVKGRFTISRDIAKNTVYLQMNSLKPEDTAVYYCAAEWPVNFDYWGQGTQVTVSS,polyreactivity (PSR sort gate),low polyreactivity
QVQLVDSAGGLVQAGGSLSLSCAASGITFVSKVMGWYRQAPGKEREFVAAITGRGDSTYADSVKGRFTNSRDNAKNCVYLQMNSLKPEDTAVYYCAAEYSVPYRGWDGYEYWGQGTQVTVSS,polyreactivity (PSR sort gate),low polyreactivity
QVQHVESGGGLVQAGGSLRISCAASGSTFPRYGKGRYRQAPGKERELVAAISSGGGRTYYADSVKGRFTISRDNAKNTVYVQMNSLKPEDTAVYYCNKRPSHWRHYIMDYWGQGTQVTVSS,polyreactivity (PSR sort gate),high polyreactivity
QVQLVESGGGLVQAGGSLRLSCAASGSIFNINAMGWYRQAPGKERELVATITSGGTASYADSVKGRFTISRDNAKNTVYLQMNSLKPEDTAVYDCNAEMYPIVKAGRQHPRRYDYWGQGTQVTVSS,polyreactivity (PSR sort gate),low polyreactivity
QVQLVESGGGLVQAGGSLRLSCAASGRIFQNYALGWYRQAPGKERELVATISSGVSTYYADSVKGRFTISRDNAKNTVYLQMNSLKPEDTAVYYCAAYVPWFEMDYWGQGTQVTVSS,polyreactivity (PSR sort gate),low polyreactivity
QVQLVESGGGLVQAGGSLRLSCAASGSNFSYTMGWYRQAPGKERELVAAITSGGITYYADSVKRRFTISRDNAKNTVYLQMNCLKPEDTAVYYCNAYYPYGLASFYYWGQGTQVTVSS,polyreactivity (PSR sort gate),low polyreactivity
QVQLVESGGGLVQAGGSLRLSCAASGRTFYGYAMGWYRQAPGKERELVATISWSGGRTNYADSVKGRFTISRDNAKNTVYLQMNSLKPEDTAVYYCAAPYRLSKYDYWGQGTEVTVSS,polyreactivity (PSR sort gate),high polyreactivity
QVQLVESGGGLVQAGASLRLSCAASGNTFIHNAMGRYRQAPGKERELVAAINWSGGRTYYADSVKGRFTISRDNAKNTVYLQMNCLKPEDTAVYYCARGTRWTYNMYYWGQGTQVTVSS,polyreactivity (PSR sort gate),high polyreactivity
QVQLVESGGGLVQAGGSLRLSCAASGRTFIYYAMGWYRQAPGKERELVAVITGGGSTNYADSVKGRFTISRDNAKNTVYLQMNSLKPEDTAVYYCNRDYDASHTSREPLVGYDYWGQGTQVTVSS,polyreactivity (PSR sort gate),low polyreactivity
QVKLVESAGGLVQAGASLRLSCAPSGITFKRYAMGWSSQQPGKQSELVAAITSGGSTHYADSVKGRFTISRDNAKNTVYLQMNTLKPEDTAVYYCATRRYKWGVRYDYWGQGTQVTVSS,polyreactivity (PSR sort gate),high polyreactivity
QVQLVESGGGLVQAGGSLRLSCAASGSIFYRNAMGWYRQAPGKEREFVAAITLRGGSTYYADSVKGRFTISRDKAKNTVYLQMNSLKPEDTAVYYCNAGVGLTYVHDGDYWGQGTQVTVSS,polyreactivity (PSR sort gate),low polyreactivity
QVQLVESGGGLVQAGGSLRLSCAASGSTFLYYAMGWYRQAPGKESELVARITTRVGRTYYADSVKGRFTISRDNAKNTVYLQMNSLKPEDTAVYYCNAPYLKSRFRAYYHWGQGTQVTVAS,polyreactivity (PSR sort gate),high polyreactivity
QVQLVESGGGLVQAGGSLRLSCAASGSTFTYYAMGWYRQAPGKERELVAAISRRGGSTYYADSVKGRFTISRDNAKNTVYLQMNSLKPEDTAVYYCNARLKPLWGGRYDYWGQGTQVTVSS,polyreactivity (PSR sort gate),high polyreactivity
QVQLVESGRGLVQAGGSLPLRCAASGPTFPFNAMGRYRQAPGKERELVAAISWRDGRTYYADSVKGRFTISRDNAKNTVYLHMNSLKPEDTAVYYCNVVKRRSDWGMDYWGQGTQVSVSS,polyreactivity (PSR sort gate),high polyreactivity
QVQLVESGGGLVQAGGSLRLSCAASGRIIADNAMGWYRQAPGKERELVATISSGGSTSYADSVKGRFTISRDNAKNTVYLQMNSLKPDDTAVYYCATPYTGPSRPYDYWGQGTQVTVSS,polyreactivity (PSR sort gate),low polyreactivity
QVQLVESGGGLVQAGGSLRLSCAASGSIFYLYAMGWYRQAPGKERELVATMSSSGGSTYYADSVKGRFTISRDNAKNTVYLQMISLKPEDTAVYYCNADYIYYGTTYEYWGQGTQVTVSS,polyreactivity (PSR sort gate),low polyreactivity
QVQLVESGGGLVQAGGSLRLSCAASGLTFDVYTMVWYRQAPGKERELVATISETYYADSVKGRFTISRDNAKNTVYLQMNSLKPEDTAVYYCAANGFKAQYRDIVYDYGYWGQGTQVTVSS,polyreactivity (PSR sort gate),low polyreactivity
QVQLVESGGGLVQAGGSLRLICAASGSTFAIYAMGWYRQAPGKERELVAAISWRTGSTYYADSVKGRFTISRDNAKNTVYLQMNSLKPEDTAVYYCAVRGRLQYSGGEGNYWGQGTQVTVSS,polyreactivity (PSR sort gate),high polyreactivity
QVQLVESGGGLVQAGGSLRLSCAASGRTFYYARGWYRQAPGKERELVAAITSSSSTYSADSVKGRFTISRDNAKNTVYLQMNSLKPEDTAVYYCNAADDPYGSPSYGYDYWGQGTQVTVSS,polyreactivity (PSR sort gate),low polyreactivity
QVQLVESGGGLVQAGGSLRLSCAASGRTFLVYAMGWYRQAPGKERELVAAITSGGDTYADSVKGRFTISRDNAKNTVYLQMNSLKPEDTAVYYCAVQPDYFIVLWEYDYWGQGTQVTVSS,polyreactivity (PSR sort gate),high polyreactivity
QVQLVESGGGLVQAGGSLRLSCSASGFTLGFNAMGCYRQAPGKEREFVASITYRGGSTYYADSVKGRFTISRDNAKNTVYLQMNSLKPEDTAVYYCAARHRSSYSLYWGQGTQVTVSS,polyreactivity (PSR sort gate),high polyreactivity
QVQLVESGGGLVQAGGSLRLSCAASGSIFTPYAMGWYRQAPGKERELVADIDASGGGTYADSVKGRFTISRDNAKNTVYLQMNSLKPEDTAVYYCNTDPYSSAWYNYDYWGQGTQVTVSS,polyreactivity (PSR sort gate),low polyreactivity
QVHLLESGGGLVQAGGSLRLSCAASGRTFIRNAMGWYRQAPGKERELVASIRWSGGSTYYADSVKGRFTISRDNAKNTVYLQMNSLKPEDTAVYYCARRKQSFGSWPPSEPVADDYWGQGTQVTVSS,polyreactivity (PSR sort gate),low polyreactivity
QVQLVESGGGLVQAGGSLRLSCAASGRIFASNAMGWYRQAPGKERELVAAISRTGGTTYYADSVKGRFTISRDNAKNTVYLQMNSLKPEDTAVYYCNAVKAPYLRYDYWGQGTQVTVSS,polyreactivity (PSR sort gate),high polyreactivity
